From paper PMC5005036, “PDZD7-MYO7A complex identified in enriched stereocilia membranes” (eLife, 2016)

Target: T1, GFP-MYO7A (mouse) (mouse, UniProt P97479 1-2215)
T1 construct: MYO7A (myosin VIIA), mouse, in pEGFP-C1; plasmid obtained from David Corey; source: HEK293, transfected, in RIPA extract; not shown: GFP, N-terminal, kept
Assay: affinity purification with mass spectrometry; HEK293 cells transfected; RIPA extract; 138-1 immunoprecipitates analysed by shotgun mass spectrometry, two technical replicates
Details: partners not purified

T1 sequence (P97479 whole entry): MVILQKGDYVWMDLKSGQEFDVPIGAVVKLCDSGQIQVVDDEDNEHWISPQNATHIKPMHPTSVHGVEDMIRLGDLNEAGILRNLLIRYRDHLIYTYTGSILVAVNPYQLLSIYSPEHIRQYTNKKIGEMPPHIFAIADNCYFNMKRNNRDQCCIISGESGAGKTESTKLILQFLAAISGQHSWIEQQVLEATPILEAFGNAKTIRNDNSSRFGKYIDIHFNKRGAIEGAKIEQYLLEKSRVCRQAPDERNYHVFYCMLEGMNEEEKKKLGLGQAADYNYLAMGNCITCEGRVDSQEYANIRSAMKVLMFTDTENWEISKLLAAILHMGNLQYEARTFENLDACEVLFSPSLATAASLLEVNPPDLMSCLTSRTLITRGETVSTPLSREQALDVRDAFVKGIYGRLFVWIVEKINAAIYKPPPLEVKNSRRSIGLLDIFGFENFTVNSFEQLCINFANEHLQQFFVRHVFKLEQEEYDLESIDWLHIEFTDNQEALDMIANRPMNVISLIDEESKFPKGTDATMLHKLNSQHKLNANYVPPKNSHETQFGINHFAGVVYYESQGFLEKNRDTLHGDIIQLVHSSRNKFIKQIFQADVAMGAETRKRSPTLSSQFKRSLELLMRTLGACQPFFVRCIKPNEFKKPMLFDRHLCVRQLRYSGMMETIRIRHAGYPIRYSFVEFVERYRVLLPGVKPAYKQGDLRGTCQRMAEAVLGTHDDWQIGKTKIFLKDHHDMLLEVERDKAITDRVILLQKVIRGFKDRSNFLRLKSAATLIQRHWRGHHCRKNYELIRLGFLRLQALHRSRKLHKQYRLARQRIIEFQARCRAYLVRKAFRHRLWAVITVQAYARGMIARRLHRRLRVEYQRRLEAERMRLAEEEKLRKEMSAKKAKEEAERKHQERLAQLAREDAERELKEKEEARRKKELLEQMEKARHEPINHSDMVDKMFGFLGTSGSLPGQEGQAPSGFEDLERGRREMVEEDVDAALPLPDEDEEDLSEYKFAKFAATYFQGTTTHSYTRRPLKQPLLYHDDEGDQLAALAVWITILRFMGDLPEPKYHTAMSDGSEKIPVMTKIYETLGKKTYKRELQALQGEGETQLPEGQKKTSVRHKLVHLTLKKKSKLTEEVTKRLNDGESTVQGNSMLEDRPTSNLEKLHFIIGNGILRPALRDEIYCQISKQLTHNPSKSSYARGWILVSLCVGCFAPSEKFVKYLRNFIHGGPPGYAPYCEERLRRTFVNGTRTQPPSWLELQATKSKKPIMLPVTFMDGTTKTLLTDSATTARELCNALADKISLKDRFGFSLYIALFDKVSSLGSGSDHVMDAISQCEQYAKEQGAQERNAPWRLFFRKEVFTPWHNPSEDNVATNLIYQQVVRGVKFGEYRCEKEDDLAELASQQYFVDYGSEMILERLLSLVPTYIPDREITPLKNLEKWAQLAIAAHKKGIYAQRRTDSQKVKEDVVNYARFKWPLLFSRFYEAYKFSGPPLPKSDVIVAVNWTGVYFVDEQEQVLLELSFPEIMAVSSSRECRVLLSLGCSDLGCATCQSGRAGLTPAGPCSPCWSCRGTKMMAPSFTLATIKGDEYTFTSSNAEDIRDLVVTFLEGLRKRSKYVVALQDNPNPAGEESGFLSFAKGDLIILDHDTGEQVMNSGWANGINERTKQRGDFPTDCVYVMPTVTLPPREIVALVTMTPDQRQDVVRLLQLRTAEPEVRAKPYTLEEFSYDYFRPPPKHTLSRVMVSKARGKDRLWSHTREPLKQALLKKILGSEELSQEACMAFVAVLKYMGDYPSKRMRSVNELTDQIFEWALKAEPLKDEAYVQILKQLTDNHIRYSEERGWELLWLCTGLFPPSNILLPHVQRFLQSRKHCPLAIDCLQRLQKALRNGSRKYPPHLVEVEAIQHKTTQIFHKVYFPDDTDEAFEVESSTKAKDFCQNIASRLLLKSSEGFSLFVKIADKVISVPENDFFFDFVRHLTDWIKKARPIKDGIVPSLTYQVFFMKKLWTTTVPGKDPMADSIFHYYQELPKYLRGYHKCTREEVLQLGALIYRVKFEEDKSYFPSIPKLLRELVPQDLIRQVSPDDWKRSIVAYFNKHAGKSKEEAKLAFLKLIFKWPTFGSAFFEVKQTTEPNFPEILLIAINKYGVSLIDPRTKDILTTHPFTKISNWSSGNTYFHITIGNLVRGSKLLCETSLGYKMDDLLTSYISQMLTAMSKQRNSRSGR

level in the 138-1 immunoprecipitate relative to MYO7A: ~0.4 x
B1: mCherry-PDZD7 (mouse), in HEK293 (natural protein, UniProt E9Q9W7 1-1021, looked up)
chain: MARGFTVGFDPLGLGELSSGSLSSVSSRGHLGSDSGSTATRYLLRKQQRLLNGPSRGIRASSPMGRVILINSPIEANSDESDIIHAVRVEKSPSGRLGFSVRGGSEHGLGIFVSKVEEGSSAERAGLCVGDKITEVNGLSLESTTMGSAVRLLTSSSCLHMMVRRMGRVPGIKFSKEKTTWVDVVNRRLVVEKCSSTPSDRSSEDGVRRIVHLYTTSDDFCLGFNIRGGKEFGLGIYVSKVDHGGLAEENGIKVGDQVLAANGVRFDDISHSQAVEVLKGQTHIMLTIKETGRYPAYKEMVSEYCWLDRLSNGVLQQLSPASESSSSVSSYASSAPCSSGSLPSDRMDVCLGPEEPTSHGPGWGRADTAMQTEPDLDSRVETWCSVRPTVILRDTAIRSDGPSSTRHLDSALSESPKTALLLALSRPRTPITRSQSHLTLWEEKKQRKKEKSGSSGEKGALQRSKTLMNLFFKGGRQGRPAGDGHREAWTLDSRSPTKVRPRLDLEKAGSVGPVQKFVTWRLRRDRERGRALLSARSGSPSGQAPTVNEQVQAWESRRPLIQDLARRLLTDDEVLAVTRHCSRYVHEGGVEDLVRPLLAILDRPTKLLLLRDIRSVVAPTDLGRFDSMVMPVELEAFEALKSRAVGPSALRPTRQDTPPKRHLITPVPDSRGGFYLLPVNSSEDEDGEIREKLGVLKVSLGASAPHHKGIPPLQDVPVDAFSLRRGACAPPPQPPPVAPRPPRPNWLLTEPLSREDTQQNQSQTPAQSCSRSRSRSRSRSHSRGQGKSPGRRRSPSPAPIATAATANGRYHRPRKARPLLPRLLDGQVAKVGARQGPLENGRIAEEAVGNVSTGALRTITLSKMKQSLGISISGGIESKVQPMVKIEKIFPGGAAFLCGDLQAGFELVAVDGESLEQVTHQRAVDTIRRAYRNKAREPMELVVRVPGPGLLPLASDLRVVKDQSLAPDCPSALGPVDDARILTQLPPPEARQLQQSLSSALKVPQSIPKLSPILKDPHDPS
notes: PDZD7, mouse, cloned into pmCherry-C1; also called PDZD7 fused to mCherry; source: HEK293, transfected, in RIPA extract; not shown: mCherry, N-terminal, kept
